Results on 28 sequences are retold here after the domain aggregation screens of Martell et al. (2025).

This series in a line: soluble fraction after stress (log2 fold change); higher = more stays soluble; pooled small domains, quantitative proteomics. The note with it: stress: 50 degC. Summed up: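 Pooled custom libraries of small protein domains were each held under stress at 50°C. The read-out, high-throughput quantitative proteomics, tracked how much of each protein stayed soluble. This is reported as a base-two log fold change used to indicate aggregation propensity. Higher values mean more protein remains in solution.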
Take “HMSDDIPVHYRLDVNDAARALKLLTDNGFSAETAESGLNVYMTRLQSAEAARLLVENNIAVYGLTAV”: the “soluble fraction (log2)” value was 0.0267. In the case of “HMEARYQLREVSLDGLRSGMILNADVLSTDGVLMARKGLEVSGLLRSRLEAFAKMERIEPTFKVLVPIAPP” it was -0.389; in that of “HMKNLSQAEFMYLFKILAFGSTDPDNHPEMAATGMEIAKMLQGLLLSGNVLADILRKNQNVQFWL”, -0.204.

For “HMTVKKEIAKVKPTPLGWLRVRETPSLNGAEITKVNTGESYDVLDKETGWIKIKVSETVEGWVSDAYIELS”, the “soluble fraction (log2)” value was determined as 0.236.

For “HMNIVINVDTPTFEQMKATYQAPGTLPAGASFHAKLKGVTVTGYTKSHKVMFQGALANQEAARWQ”, the “soluble fraction (log2)” value is -0.92.

Consider “HMFKMRVNGKEVIGMAITAKPQANPIDVADEIKKFVIDANTKLPSTMKLEVLYDATGIFRASISEVIS”, for which the “soluble fraction (log2)” value was -0.273. In the case of “HMERYFVLVIYDIVDNKKRLKLSKYLLGYGIRVQKSAFEMMITKEKYNKLIKELPTYIEEGEDSIRLY” it was 0.132; in that of “HMNQADNFNSLTKREKDVLLLVTQGESNKSIADKLVLSEVTVKSHLNSIFKKLNVTNRTQAVLVAMQMNLV”, 0.03. Under “HMSVETSDLLPLIEQVLSLNPDKVKEYQNGKKGLLGFFMGQIKQTAGVAIDVGTLKPLLEDALHKDL” stands -0.493; under “HMVAPPILNITTHIFAEEADLRMVMINGVTRREGDSLGENHRLLEITERGLILIFHNKQYTLDV”, -3.68.

As to “HMDETELLLQKAIATLPDKQRVVFNLKYFDEMKYEEMSELLETSVGALKASYHLAVKKIEQFFHDA”, the “soluble fraction (log2)” value was -0.643.

Take “HMESDAIAAAIAALPARYREVLLLRYDNGFSYSEISKALDMTEAAVRKTVQRAKEALQRTLQIQEEDT”: the “soluble fraction (log2)” value is -0.471. Under “HMEFDIDAAIHAALEPQAVMRAWFGHEGREYPEDFGVVFFRGWESFTHQEKVEAVRDAKKVLDRAVR” stands -0.516.

For the sequence “HMESRETGLPVVIISDGRILQDNLKRRGLDLSWLDKQLAEHGYPDFRDVFLLTVDEAGGVYFVPRE”, the “soluble fraction (log2)” value amounted to 0.333. Under “HMPFDWSAFDWKGWADEALAIIKTANQDQMNKWTEDNEKIIVQAETAAPDIYKTVGDEYDKKMESFN” stands 0.11; under “HMDTAGSVAIVSKSVIENGFGEIKYKGTYFKAQSDVYIPKDQMVKVIGKGDEQGSFLIVEKLN”, -0.0425; under “HMNMANFARIRLILELHDRGMSQDEISRSRHMSRSTITTVLRTARKKGITYAGIRKLDDAALQKLFFPDR”, -3.88.

Take “HMEAEPRLLDLPPGTRAGRLDKVLAQLLPEHSRSRLQGWIERGGVLVNGKEASVRQVVGPGDQLTVWEEAA”: the “soluble fraction (log2)” value is -0.0918. On to “HMLDTELEANLRSQRDQKLVEELDPIVTNPLRWAELTSDKQTEWTQYRTDLLNVPQQSGFPTNVTWPEKP”, for which the “soluble fraction (log2)” value was determined as 0.212. With “HMKVSKNKIVKGMGFHHVALKAVDFDASFKFYTEGLGMKFYTSWGEGNGKIAMLDLGDGGILELFA”, the “soluble fraction (log2)” value came to 0.0801.

Regarding “HMALKPKITIEELIRILNESKDLSDSETAKILNKDYTTAKYGKEFTSINVQGARYALDIATNTS”, the “soluble fraction (log2)” value was -0.135. Under “HMNVRAYKVSKESELTVEEKLEAVRGYGVADLLYVIREFEENPGKYEPEVIKLIVQQLTDKGIM” stands 0.199; under “HMEVAAAENYRSKLSSFAKDTISVWQTELLLGTISDDDKASLTEWMAYIKALQVVDTSDPESITWPTEPT”, -1.45; under “HMKISDLPAAQVYREIVHAWPKAAAYADLAPINNGGMQRWRDVVHEWVLRGYNPANLRGMLEWYKAGIPTR”, -0.398. As to “HMDGTVRGKTTFQELLDWGVPQERIEAVLGGPIPAPGVVIKDYVTAQGKEFSAVRDALQAEVDAVLK”, the “soluble fraction (log2)” value worked out at 0.232. With “HMADLPQATALADVKGDVQMQGIQFGYDPEKIIIHDLNLHARPGSLVAIVGPTGAGKTTIINLLMRFYD”, the “soluble fraction (log2)” value was -0.313.

For “HMKEIKAPNKINAHLIEEWRSQHPTELFPEEKVDLIYYKGEEYYFVIEEKNELGEIEEWYFAYDGGIDYV”, the “soluble fraction (log2)” value amounted to 0.106. Under “HMEDKKQVLYELITDKSYRPLRFKELAVLLMVPKALRGELKQTLDELIKEGKITVDSSSRYRAA” stands 0.133.
